Reference: patent US20240182563A1 (GENOME, published 2024)

Experiments:
mouse CNTN4-rabbit Fc = target: T1, mouse CNTN4-rabbit Fc (mouse; rabbit, UniProt Q69Z26 19-1000, limits assumed); test: ELISA, plate coated with antigen-rabbit Fc, anti-human IgG Fc-HRP
T1 construct: not shown: rabbit Fc
T1 sequence (looked up): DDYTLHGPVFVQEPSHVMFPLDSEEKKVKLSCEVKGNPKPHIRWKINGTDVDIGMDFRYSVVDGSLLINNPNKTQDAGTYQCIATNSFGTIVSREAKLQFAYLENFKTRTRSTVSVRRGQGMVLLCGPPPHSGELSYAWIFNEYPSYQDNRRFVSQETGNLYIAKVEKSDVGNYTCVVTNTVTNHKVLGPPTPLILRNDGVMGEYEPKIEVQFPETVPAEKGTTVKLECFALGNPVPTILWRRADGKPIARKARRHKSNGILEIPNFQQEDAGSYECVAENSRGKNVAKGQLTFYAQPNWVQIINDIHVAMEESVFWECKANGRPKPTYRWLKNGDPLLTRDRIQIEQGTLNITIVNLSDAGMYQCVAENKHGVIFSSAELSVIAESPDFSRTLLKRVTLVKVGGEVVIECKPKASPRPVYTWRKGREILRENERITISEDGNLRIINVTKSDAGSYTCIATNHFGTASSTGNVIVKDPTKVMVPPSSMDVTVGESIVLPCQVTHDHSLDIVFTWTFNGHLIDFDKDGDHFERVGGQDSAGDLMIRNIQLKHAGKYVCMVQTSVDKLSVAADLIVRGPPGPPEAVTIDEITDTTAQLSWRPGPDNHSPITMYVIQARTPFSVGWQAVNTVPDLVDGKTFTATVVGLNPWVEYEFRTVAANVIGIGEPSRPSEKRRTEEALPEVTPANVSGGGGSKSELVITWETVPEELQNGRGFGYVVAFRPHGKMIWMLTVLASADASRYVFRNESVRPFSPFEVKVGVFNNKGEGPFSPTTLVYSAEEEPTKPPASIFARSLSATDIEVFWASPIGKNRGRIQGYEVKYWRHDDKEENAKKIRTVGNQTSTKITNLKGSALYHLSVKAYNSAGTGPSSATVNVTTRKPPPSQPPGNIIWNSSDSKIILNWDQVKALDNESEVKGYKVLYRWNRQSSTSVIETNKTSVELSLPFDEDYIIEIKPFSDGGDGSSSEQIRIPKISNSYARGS
Method: (§1) An ELISA tests were performed on a total of 25 scFv-hCks and a total of 27 IgGs for which the expression was confirmed in Example 1.2. An ELISA plate was coated with 200 ng of antigens (human CNTN4-rabbit Fc or mouse CNTN4-rabbit Fc). 200 ng of a negative control (human antigen-rabbit Fc) for a tagging protein was used. For antibody binding, anti-CNTN4 scFv-hCk was serially diluted from a maximum of 1 μM to 0.001 nM by 1/10×each, and anti-CNTN4 IgG was serially diluted from a maximum of 10 nM to 0.00001 nM by 1/10×each, thereby binding to the antigen. Anti-human kappa-HRP or anti-human IgG Fc-HRP was used as the secondary antibody for antibody detection. Color was developed using ABTS, which is a color developing reagent, and the absorbance at 405 nm was measured.

human CNTN4-rabbit Fc = target: T2, human CNTN4-rabbit Fc (human; rabbit, UniProt Q8IWV2 19-1000, limits assumed); test: as above
T2 construct: not shown: rabbit Fc
T2 sequence (looked up): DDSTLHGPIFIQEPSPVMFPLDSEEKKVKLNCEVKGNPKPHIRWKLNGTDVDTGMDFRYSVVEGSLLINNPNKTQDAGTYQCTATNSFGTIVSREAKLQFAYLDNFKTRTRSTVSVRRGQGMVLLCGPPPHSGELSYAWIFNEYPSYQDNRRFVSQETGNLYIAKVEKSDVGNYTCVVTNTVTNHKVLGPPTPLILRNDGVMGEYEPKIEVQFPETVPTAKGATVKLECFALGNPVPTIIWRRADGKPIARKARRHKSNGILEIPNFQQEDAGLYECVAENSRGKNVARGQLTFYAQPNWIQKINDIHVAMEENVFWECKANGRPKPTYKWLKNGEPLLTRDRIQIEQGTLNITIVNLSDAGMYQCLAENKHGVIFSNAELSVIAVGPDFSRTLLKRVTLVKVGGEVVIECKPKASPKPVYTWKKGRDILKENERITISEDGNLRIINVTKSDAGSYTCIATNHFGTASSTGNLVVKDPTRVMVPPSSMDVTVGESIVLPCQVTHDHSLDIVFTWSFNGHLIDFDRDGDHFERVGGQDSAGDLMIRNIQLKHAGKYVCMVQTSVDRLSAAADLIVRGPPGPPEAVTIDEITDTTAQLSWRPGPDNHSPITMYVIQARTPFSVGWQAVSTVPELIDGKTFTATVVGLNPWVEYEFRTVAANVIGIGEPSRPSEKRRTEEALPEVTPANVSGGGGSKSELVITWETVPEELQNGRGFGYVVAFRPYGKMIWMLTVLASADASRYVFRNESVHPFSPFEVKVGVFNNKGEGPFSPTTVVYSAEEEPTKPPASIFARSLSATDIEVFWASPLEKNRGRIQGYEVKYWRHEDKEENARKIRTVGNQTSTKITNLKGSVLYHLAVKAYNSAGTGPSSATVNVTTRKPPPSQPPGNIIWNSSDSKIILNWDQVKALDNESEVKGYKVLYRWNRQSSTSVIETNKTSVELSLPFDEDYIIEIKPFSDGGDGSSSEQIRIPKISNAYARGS
Method: as §1

[1] = target: T3, human CNTN4 antigen expressed on the cell membrane of 293FT cells (human, UniProt Q8IWV2 19-1000); test: FACS, 293FT cells transfected with human CNTN4, 40 ug/mL, anti-hFc-PE
T3 construct: whole, on cells; also called Human CNTN4 transfected cell
T3 sequence (looked up): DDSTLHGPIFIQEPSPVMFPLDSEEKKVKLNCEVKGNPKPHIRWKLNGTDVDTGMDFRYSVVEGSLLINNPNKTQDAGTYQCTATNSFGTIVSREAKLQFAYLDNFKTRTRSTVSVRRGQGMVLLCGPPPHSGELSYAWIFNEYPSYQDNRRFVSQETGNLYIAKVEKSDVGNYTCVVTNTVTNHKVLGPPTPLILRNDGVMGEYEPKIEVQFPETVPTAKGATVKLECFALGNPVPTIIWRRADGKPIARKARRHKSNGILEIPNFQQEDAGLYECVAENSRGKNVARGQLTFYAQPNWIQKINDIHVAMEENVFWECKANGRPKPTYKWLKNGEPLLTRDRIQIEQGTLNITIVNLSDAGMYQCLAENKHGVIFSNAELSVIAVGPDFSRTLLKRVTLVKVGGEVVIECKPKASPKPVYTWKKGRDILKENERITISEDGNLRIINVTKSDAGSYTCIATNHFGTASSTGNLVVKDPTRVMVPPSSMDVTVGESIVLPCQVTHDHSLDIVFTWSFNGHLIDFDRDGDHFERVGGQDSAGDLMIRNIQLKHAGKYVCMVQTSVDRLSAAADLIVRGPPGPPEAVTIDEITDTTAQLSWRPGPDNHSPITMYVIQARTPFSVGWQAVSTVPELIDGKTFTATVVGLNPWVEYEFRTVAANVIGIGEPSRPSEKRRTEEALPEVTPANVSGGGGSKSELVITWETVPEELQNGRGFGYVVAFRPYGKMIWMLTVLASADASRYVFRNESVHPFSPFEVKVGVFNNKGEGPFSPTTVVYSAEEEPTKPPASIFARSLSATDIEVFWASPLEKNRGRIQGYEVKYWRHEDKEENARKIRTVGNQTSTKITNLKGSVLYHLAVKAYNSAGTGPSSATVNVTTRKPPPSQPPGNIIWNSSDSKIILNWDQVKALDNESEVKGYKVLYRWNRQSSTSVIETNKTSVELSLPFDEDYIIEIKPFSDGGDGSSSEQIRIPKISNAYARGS

| Binder | EC50 (mouse CNTN4-rabbit Fc) [pM] | EC50 (human CNTN4-rabbit Fc) [pM] | Shift % [1] [%] |
| --- | --- | --- | --- |
| anti-CNTN4 IgG A35WB1 (antibody, V domains shown, human IgG4 (S228P)) VH: AVTLDESGGGLHTPGGALSLVCKASGFTFSSYGMAWVRQAPGKGLEWVAGITSSGSSAGYGPAVKGRATISRDNGQSTVRLQLNNLRAEDTATYYCAKDGYIYSGADSDSIDAWGHGTEVIVSS VL: ALTQPSSVSANPGETVKITCSGGSGSYGWYQQKSPGSAPVTVIYNNDQRPSNIPSRFSGSKSGSTATLTITGVQVEDEAVYFCGGWDSNSGAIFGAGTTLTVL | 10 | 20 | 83.9 |
| anti-CNTN4 IgG A35WB27 (antibody, V domains shown, human IgG4 (S228P)) VH: AVTLDESGGGLHTPGGALSLVCKASGFTFSSYGMAWVRQAPGKGLEWVAGITSSGSSAGYGPAVKGRATISRDNGQSTVRLQLNNLRAEDTATYYCAKDGYIYSGADSDSIDAWGHGTEVIVSS VL: ALTQPSSVSANLGETVKITCSGGYSGYGWYQQKSPGSAPVTVIYYNDKRPSDIPSRFSGSKSGSTGTLTITGVRAEDEAVYFCGSADSSTGYVAIFGAGTTLTVL | 10 | 10 | 88.2 |
| anti-CNTN4 IgG A35SF13 (antibody, V domains shown, human IgG4 (S228P)) VH: AVTLDESGGGLHTPGGALSLVCKASGFTFSSYGMAWVRQAPGKGLEWVAGITSSGSSAGYGPAVKGRATISRDNGQSTVRLQLNNLRAEDTATYYCAKDGYIYSGADSDSIDAWGHGTEVIVSS VL: ALTQPSSVSANPGETVKITCSGGGGSYGWYQQKSPGSALVTVIYNNDNRPSNIPSRLSGSKSGSTATLTITGVRAEDEAVYFCGSADNNGYIAIFGAGTTLTVL | 20 | 10 | 82.1 |

Further binders by falling EC50 (mouse CNTN4-rabbit Fc), results first:

| EC50 (mouse CNTN4-rabbit Fc) [pM] | EC50 (human CNTN4-rabbit Fc) [pM] | Shift % [1] [%] | Binder |
| --- | --- | --- | --- |
| 120 | 110 | 84.1 | anti-CNTN4 IgG A13SF74 (antibody, V domains shown, human IgG4 (S228P)) VH: AVTLDESGGGLQTPGGALSLVCKASGFTLSSYAMQWVRQAPGKGLEWVAGISKGGGSTAYGAAVKGRATISRDNGQSTVRLQLNNLRAEDTATYFCAKTTDSNCCSSDSIDAWGHGTEVIVSS VL: ALTQPSSVSANPGETVKITCSGNSSGCSWYGWFQQKSPGSALVTVIYDNTNRPSNIPSRFSGSRSGSTATLTITGVQAEDEAIYFCGIADSSGAGIFGAGTTLTVL |
| 10 | 10 | 82.6 | anti-CNTN4 IgG A35SF5 (antibody, V domains shown, human IgG4 (S228P)) VH: AVTLDESGGGLHTPGGALSLVCKASGFTFSSYGMAWVRQAPGKGLEWVAGITSSGSSAGYGPAVKGRATISRDNGQSTVRLQLNNLRAEDTATYYCAKDGYIYSGADSDSIDAWGHGTEVIVSS VL: ALTQPSSVSANPGETVEITCSGSSGSNYGWYQQKSPGSAPVTLIYYNDNRPSDIPSRFSGSKSGSTGTLTITGVQVEDEAVYYCGAWESSSNPDIFGAGTTLTVL |
| 10 | 10 | 86.6 | anti-CNTN4 IgG A35SF37 (antibody, V domains shown, human IgG4 (S228P)) VH: AVTLDESGGGLHTPGGALSLVCKASGFTFSSYGMAWVRQAPGKGLEWVAGITSSGSSAGYGPAVKGRATISRDNGQSTVRLQLNNLRAEDTATYYCAKDGYIYSGADSDSIDAWGHGTEVIVSS VL: ALTQPSSVSANLGGTVKITCSGGSNNYGWYQQKSPGSAPVTVIYYNNKRPSDIPSRFSGSKSGSTATLTITGVQAEDEAVYFCGGYDSSSNSDVYGAGTTLTVL |
